Measurements as given in CN113321730A.

Molecular target: T1, hCLDN18.2 (human) (UniProt P56856)
T1 sequence (looked up): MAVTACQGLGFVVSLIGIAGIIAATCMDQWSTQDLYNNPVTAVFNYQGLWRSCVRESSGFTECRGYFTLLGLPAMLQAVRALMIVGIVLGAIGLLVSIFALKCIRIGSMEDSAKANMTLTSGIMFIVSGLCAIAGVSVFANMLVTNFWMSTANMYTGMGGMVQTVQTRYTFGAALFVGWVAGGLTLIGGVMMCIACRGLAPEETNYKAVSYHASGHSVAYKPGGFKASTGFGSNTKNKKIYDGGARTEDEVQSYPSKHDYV
Assay: FACS titration on 18.2-K562 cells (20 to 0.002 μg/mL), Anti-Human IgG FITC, MFI

B1: 抗体E1(C18-23-3G5-1E1) (antibody, V domains shown)
VH: EVQLQQSGPELVKPGASVKISCQASGYTFTDYYMNWVKQSHVKSLEWIGHINPKNGGTNYNQNFKDKATLTVDKSSSTAYMELRSLTSEDSAVYYCARIYYGNSFVYWGQGTLVTVSA
VL: DIVMTQSPSFLTVTAGEKVTLNCKSSQSLLNSGNQKSYLTWYQQKPGQPPKLLIYWASTRESGVPDRFIGSGSGTDFTLTISSVQAEDLAVYYCQNNYFYPVTFGAGTKLELK
抗体亲和力: 0.696 µg/mL
